Results reported in the supplement of paper PMC5998384.

How the values were obtained:
HeLa Kyoto [1] = assay: thermal stability score vs G1/S (z-score of summed log2 fold changes over temperatures); higher = more thermally stable than in G1/S
HeLa Kyoto [2] = assay: solubility change mitosis vs G1/S (difference of NP-40 vs SDS log2 ratios) (log2 ratio difference); higher = more soluble in mitosis
HeLa Kyoto [3] = assay: solubility in G1/S (NP-40 vs SDS abundance) (log2 ratio); higher = more soluble; settings: cell cycle stage: G1/S
HeLa Kyoto [4] = assay: melting temperature (median over replicates), in situ; higher = more thermally stable
[5] = cell cycle stage: early G1 (4.5 h after nocodazole release)
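Throughout, for melting temperature (median over replicates), in situ: HeLa Kyoto cells synchronized by double thymidine or nocodazole block, proteins quantified by TMT10plex mass spectrometry, three independent biological replicates.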
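Throughout, for solubility change mitosis vs G1/S (difference of NP-40 vs SDS log2 ratios): synchronized HeLa Kyoto cells (double thymidine block for G1/S, nocodazole release for mitosis), protein amounts in NP-40 versus SDS lysates quantified by mass spectrometry, three biological replicates.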
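Throughout, for solubility in G1/S (NP-40 vs SDS abundance): HeLa Kyoto cells arrested at G1/S by double thymidine block, proteins quantified by TMT10plex mass spectrometry in mild NP-40 versus SDS extracts, three biological replicates.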
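Throughout, for thermal stability score vs G1/S (z-score of summed log2 fold changes over temperatures): synchronized HeLa Kyoto cells, proteins quantified by TMT10plex mass spectrometry, three biological replicates, mitosis taken 0.5 h after nocodazole release, G1/S directly after double thymidine block.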

NDRG3, sequence (chain, as listed by the source): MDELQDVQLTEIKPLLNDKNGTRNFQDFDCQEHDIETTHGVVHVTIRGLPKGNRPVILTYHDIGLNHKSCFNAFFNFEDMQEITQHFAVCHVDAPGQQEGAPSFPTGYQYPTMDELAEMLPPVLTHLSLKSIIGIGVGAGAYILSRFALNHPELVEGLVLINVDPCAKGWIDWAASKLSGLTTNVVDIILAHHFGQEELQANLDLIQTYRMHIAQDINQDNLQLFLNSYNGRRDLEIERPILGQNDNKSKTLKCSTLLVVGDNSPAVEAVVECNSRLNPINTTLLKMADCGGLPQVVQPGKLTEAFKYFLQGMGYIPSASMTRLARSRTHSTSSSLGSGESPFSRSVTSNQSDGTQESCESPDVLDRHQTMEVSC

## MIAAPEIPTDFNLLQESETHFSSDTDFEDIEGKNQKQGKGKTCKKGKKGPAEKGKGGNGGGKPPSGPNRMNGHHQQNGVENMMLFEVVKMGKSAMQSVVDDWIESYKHDRDIALLDLINFFIQCSGCKGVVTAEMFRHMQNSEIIRKMTEEFDEDSGDYPLTMAGPQWKKFKSSFCEFIGVLVRQCQYSIIYDEYMMDTVISLLTGLSDSQVRAFRHTSTLAAMKLMTALVNVALNLSINMDNTQRQYEAERNKMIGKRANERLELLLQKRKELQENQDEIENMMNAIFKGVFVHRYRDAIAEIRAICIEEIGIWMKMYSDAFLNDSYLKYVGWTMHDKQGEVRLKCLTALQGLYYNKELNSKLELFTSRFKDRIVSMTLDKEYDVAVQAIKLLTLVLQSSEEVLTAEDCENVYHLVYSAHRPVAVAAGEFLYKKLFSRRDPEEDGMMKRRGRQGPNANLVKTLVFFFLESELHEHAAYLVDSMWDCATELLKDWECMNSLLLEEPLSGEEALTDRQESALIEIMLCTIRQAAECHPPVGRGTGKRVLTAKEKKTQLDDRTKITELFAVALPQLLAKYSVDAEKVTNLLQLPQYFDLEIYTTGRLEKHLDALLRQIRNIVEKHTDTDVLEACSKTYHALCNEEFTIFNRVDISRSQLIDELADKFNRLLEDFLQEGEEPDEDDAYQVLSTLKRITAFHNAHDLSKWDLFACNYKLLKTGIENGDMPEQIVIHALQCTHYVILWQLAKITESSSTKEDLLRLKKQMRVFCQICQHYLTNVNTTVKEQAFTILCDILMIFSHQIMSGGRDMLEPLVYTPDSSLQSELLSFILDHVFIEQDDDNNSADGQQEDEASKIEALHKRRNLLAAFCKLIVYTVVEMNTAADIFKQYMKYYNDYGDIIKETMSKTRQIDKIQCAKTLILSLQQLFNEMIQENGYNFDRSSSTFSGIKELARRFALTFGLDQLKTREAIAMLHKDGIEFAFKEPNPQGESHPPLNLAFLDILSEFSSKLLRQDKRTVYVYLEKFMTFQMSLRREDVWLPLMSYRNSLLAGGDDDTMSVISGISSRGSTVRSKKSKPSTGKRKVVEGMQLSLTEESSSSDSMWLSREQTLHTPVMMQTPQLTSTIMREPKRLRPEDSFMSVYPMQTEHHQTPLDYNRRGTSLMEDDEEPIVEDVMMSSEGRIEDLNEGMDFDTMDIDLPPSKNRRERTELKPDFFDPASIMDESVLGVSMF [STAG2]
HeLa Kyoto [1]; [5]
  thermal stability score: -0.506
HeLa Kyoto [1]; cell cycle stage: mitosis
  thermal stability score: -0.478
HeLa Kyoto [2]
  solubility change mitosis (log2): -0.0337
HeLa Kyoto [3]
  solubility in G1/S (log2): -0.185
HeLa Kyoto [4]; cell cycle stage: G1/S
  melting temperature: 52.9 °C
HeLa Kyoto [4]; cell cycle stage: mitosis
  melting temperature: 51.6 °C

## MAVSESQLKKMVSKYKYRDLTVRETVNVITLYKDLKPVLDSYVFNDGSSRELMNLTGTIPVPYRGNTYNIPICLWLLDTYPYNPPICFVKPTSSMTIKTGKHVDANGKIYLPYLHEWKHPQSDLLGLIQVMIVVFGDEPPVFSRPISASYPPYQATGPPNTSYMPGMPGGISPYPSGYPPNPSGYPGCPYPPGGPYPATTSSQYPSQPPVTTVGPSRDGTISEDTIRASLISAVSDKLRWRMKEEMDRAQAELNALKRTEEDLKKGHQKLEEMVTRLDQEVAEVDKNIELLKKKDEELSSALEKMENQSENNDIDEVIIPTAPLYKQILNLYAEENAIEDTIFYLGEALRRGVIDLDVFLKHVRLLSRKQFQLRALMQKARKTAGLSDLY [TSG101]
HeLa Kyoto [1]; [5]
  thermal stability score: -0.385
HeLa Kyoto [1]; cell cycle stage: mitosis
  thermal stability score: -0.589
HeLa Kyoto [2]
  solubility change mitosis (log2): -0.0618
HeLa Kyoto [3]
  solubility in G1/S (log2): 0.617
HeLa Kyoto [4]; cell cycle stage: G1/S
  melting temperature: 50.7 °C
HeLa Kyoto [4]; cell cycle stage: mitosis
  melting temperature: 50.2 °C

## MAAAAAEQQQFYLLLGNLLSPDNVVRKQAEETYENIPGQSKITFLLQAIRNTTAAEEARQMAAVLLRRLLSSAFDEVYPALPSDVQTAIKSELLMIIQMETQSSMRKKVCDIAAELARNLIDEDGNNQWPEGLKFLFDSVSSQNVGLREAALHIFWNFPGIFGNQQQHYLDVIKRMLVQCMQDQEHPSIRTLSARATAAFILANEHNVALFKHFADLLPGFLQAVNDSCYQNDDSVLKSLVEIADTVPKYLRPHLEATLQLSLKLCGDTSLNNMQRQLALEVIVTLSETAAAMLRKHTNIVAQTIPQMLAMMVDLEEDEDWANADELEDDDFDSNAVAGESALDRMACGLGGKLVLPMIKEHIMQMLQNPDWKYRHAGLMALSAIGEGCHQQMEGILNEIVNFVLLFLQDPHPRVRYAACNAVGQMATDFAPGFQKKFHEKVIAALLQTMEDQGNQRVQAHAAAALINFTEDCPKSLLIPYLDNLVKHLHSIMVLKLQELIQKGTKLVLEQVVTSIASVADTAEEKFVPYYDLFMPSLKHIVENAVQKELRLLRGKTIECISLIGLAVGKEKFMQDASDVMQLLLKTQTDFNDMEDDDPQISYMISAWARMCKILGKEFQQYLPVVMGPLMKTASIKPEVALLDTQDMENMSDDDGWEFVNLGDQQSFGIKTAGLEEKSTACQMLVCYAKELKEGFVEYTEQVVKLMVPLLKFYFHDGVRVAAAESMPLLLECARVRGPEYLTQMWHFMCDALIKAIGTEPDSDVLSEIMHSFAKCIEVMGDGCLNNEHFEELGGILKAKLEEHFKNQELRQVKRQDEDYDEQVEESLQDEDDNDVYILTKVSDILHSIFSSYKEKVLPWFEQLLPLIVNLICPHRPWPDRQWGLCIFDDVIEHCSPASFKYAEYFLRPMLQYVCDNSPEVRQAAAYGLGVMAQYGGDNYRPFCTEALPLLVRVIQSADSKTKENVNATENCISAVGKIMKFKPDCVNVEEVLPHWLSWLPLHEDKEEAVQTFNYLCDLIESNHPIVLGPNNTNLPKIFSIIAEGEMHEAIKHEDPCAKRLANVVRQVQTSGGLWTECIAQLSPEQQAAIQELLNSA [IPO5]
HeLa Kyoto [1]; [5]
  thermal stability score: 1.46
HeLa Kyoto [1]; cell cycle stage: mitosis
  thermal stability score: 1.41
HeLa Kyoto [2]
  solubility change mitosis (log2): -0.0935
HeLa Kyoto [3]
  solubility in G1/S (log2): 0.177
HeLa Kyoto [4]; cell cycle stage: G1/S
  melting temperature: 54 °C
HeLa Kyoto [4]; cell cycle stage: mitosis
  melting temperature: 53.5 °C

## NDRG3
HeLa Kyoto [1]; [5]
  thermal stability score: 0.668
HeLa Kyoto [1]; cell cycle stage: mitosis
  thermal stability score: 0.934
HeLa Kyoto [2]
  solubility change mitosis (log2): -0.371
HeLa Kyoto [3]
  solubility in G1/S (log2): 0.351
HeLa Kyoto [4]; cell cycle stage: G1/S
  melting temperature: 52.2 °C
HeLa Kyoto [4]; cell cycle stage: mitosis
  melting temperature: 52 °C

## MKLYSLSVLYKGEAKVVLLKAAYDVSSFSFFQRSSVQEFMTFTSQLIVERSSKGTRASVKEQDYLCHVYVRNDSLAGVVIADNEYPSRVAFTLLEKVLDEFSKQVDRIDWPVGSPATIHYPALDGHLSRYQNPREADPMTKVQAELDETKIILHNTMESLLERGEKLDDLVSKSEVLGTQSKAFYKTARKQNSCCAIM [YKT6]
HeLa Kyoto [1]; [5]
  thermal stability score: 0.334
HeLa Kyoto [1]; cell cycle stage: mitosis
  thermal stability score: -0.9
HeLa Kyoto [2]
  solubility change mitosis (log2): -0.0935
HeLa Kyoto [3]
  solubility in G1/S (log2): -0.0827
HeLa Kyoto [4]; cell cycle stage: G1/S
  melting temperature: 54.5 °C
HeLa Kyoto [4]; cell cycle stage: mitosis
  melting temperature: 54.6 °C

## TOP2B
HeLa Kyoto [1]; [5]
  thermal stability score: 0.414
HeLa Kyoto [1]; cell cycle stage: mitosis
  thermal stability score: 1.45
HeLa Kyoto [2]
  solubility change mitosis (log2): 0.675
HeLa Kyoto [3]
  solubility in G1/S (log2): -2.12
HeLa Kyoto [4]; cell cycle stage: G1/S
  melting temperature: 52.2 °C
HeLa Kyoto [4]; cell cycle stage: mitosis
  melting temperature: 51.6 °C
